# Results from the RNAGym collection of RNA variant scans (doi:10.7554/elife.80360).
# B1: Hairpin Ribozyme (parent)
# chain: GUCCUCUUUCACGUGCGCGUGAAAGAGAGAAGUGAACCAGAGAAACACACGUUGUGGUAUAUUACCUGGUA
# Variants of: B1
# Assay: self-cleavage, relative activity (ratio to wild type); higher = more cleavage; co-transcriptional
row,Variant,self-cleavage
1,C38G A44C,0.17
2,C38G A44G,0.335
3,A39U G69C,0.073
4,A39U G69U,0.151
5,A39U G69A,0.157
6,A39U A49U,0.0838
7,A39U A49C,0.145
8,C38A A71U,0.129
9,A39C A49C,0.151
10,A39C A49U,0.12
11,C38A A44C,0.108
12,C38U U62C,0.273
13,C38U U62A,0.128
14,C37U G57A,0.169
15,A39U A41G,0.644
16,A36U A44G,0.183
17,A36U A44C,0.112
18,C37A U60A,0.303
19,C38G U60G,0.146
20,C37A G56A,0.156
21,C37A G56U,0.189
22,C38A A43U,0.152
23,C37G G56C,0.176
24,C38U A43U,0.153

row,Variant,self-cleavage
1,C38U A43G,0.0885
2,C38G G56C,0.0901
3,A39C C50U,0.156
4,C37A A71C,0.526
5,C37A A71U,0.284
6,A39G U63A,0.111
7,C37G C66G,0.154
8,C38U U67A,0.119
9,C37G C50G,0.0454
10,C38U A44U,0.135
11,C38U A44C,0.0457
12,A39G A41U,0.474
13,A39G A41G,0.619
14,C38A U58C,0.181
15,C38U U63A,0.141
16,C37G G57A,0.13
17,C37G G57U,0.141
18,C38A G51U,0.195
19,C38A G68C,0.137
20,C38A G68U,0.735
21,C38G G54C,0.12
22,C38G G54U,0.0948
23,A39U G42U,0.172
24,C37A U58A,0.235

row,Variant,self-cleavage
1,A36U U52C,0.765
2,A36U U52G,0.466
3,A36U U52A,0.303
4,C37G A47C,0.14
5,A39C C66G,0.0809
6,A39C C66U,0.306
7,C37A G42C,0.16
8,C37G G42C,0.152
9,C37U A43C,0.126
10,C37U A43U,0.0491
11,A36U G40A,0.296
12,C38G A43U,0.154
13,C38U U70C,0.268
14,C38G C50A,0.162
15,C38G C50G,0.0871
16,C38U G56A,0.106
17,C38U G56U,0.14
18,C37U A41G,0.994
19,C37A U67G,0.202
20,C37A U67A,0.197
21,A36U A49C,0.214
22,C37A A47G,0.0917
23,C37U U60C,0.645
24,C37U U60A,0.352

row,Variant,self-cleavage
1,C37U U60G,0.451
2,C38G G68U,0.514
3,A39U G56A,0.114
4,C38G G57C,0.103
5,A36U C50G,0.0987
6,A36U C50U,0.125
7,C38U G42A,0.132
8,A39C A44G,0.0893
9,A39G C65U,0.263
10,A36U G56C,0.131
11,A36U G56A,0.0631
12,C37G A41U,0.541
13,C38G U67C,0.119
14,C37U G56U,0.13
15,C37U G56C,0.198
16,A36U A43G,0.138
17,A36U A43U,0.0848
18,A36U A43C,0.0574
19,C37G A44C,0.16
20,A39G U62G,0.074
21,C38A U60A,0.0853
22,A39G A59U,0.153
23,C38U A41G,0.648
24,C38U A41U,0.742

row,Variant,self-cleavage
1,C38U A41C,0.619
2,A39G A44C,0.0747
3,C37U C46U,0.198
4,C38G U58A,0.139
5,C38G U58C,0.185
6,C38G U58G,0.175
7,C38A C46G,0.133
8,A39U A43C,0.129
9,A39C A45C,0.174
10,A39C A45U,0.231
11,C38U U55C,0.231
12,C37G G69C,0.984
13,C37G G69A,0.346
14,C37U U55G,0.159
15,C37U U55C,0.172
16,C37U U55A,0.143
17,C38G C48A,0.202
18,C37A G57C,0.158
19,C37U A44U,0.173
20,A39G U55G,0.12
21,A39G U55C,0.119
22,A39G A71C,0.303
23,A39G A71U,0.176
24,C38A U62A,0.218

row,Variant,self-cleavage
1,C37U A71G,0.779
2,C38G U55A,0.288
3,C38G U55G,0.193
4,C37U C48A,0.12
5,C38A G40A,0.139
6,C38G A59U,0.125
7,C38G A59G,0.162
8,C38G G42C,0.134
9,A39C U67A,0.272
10,C38A C50G,0.089
11,C37U C50G,0.226
12,A39U C66G,0.135
13,A39U C66A,0.121
14,A36U A45G,0.106
15,A36U A45C,0.224
16,A36U A45U,0.057
17,A36U C46A,0.0951
18,A36U C46G,0.0439
19,C38U C65A,0.453
20,C37G G68C,0.131
21,C37A U52C,0.266
22,C37A U55A,0.121
23,C37A U55G,0.0701
24,A39C G56U,0.134

row,Variant,self-cleavage
1,A39C G56C,0.144
2,A36U A41C,0.654
3,C38U A49C,0.245
4,C38A G69U,0.0684
5,A39G U60C,0.424
6,A39U U52C,0.378
7,C37G A45C,0.112
8,C37A G51C,0.239
9,C37A U62A,0.133
10,C37A A39U,0.0999
11,C37G U62G,0.138
12,C37U U67A,0.175
13,A39G U67A,0.126
14,C38G C65A,0.145
15,A36U G51A,0.508
16,C38G U63G,0.231
17,C38G U63A,0.117
18,A39G G42A,0.114
19,A36U G42U,0.173
20,A39G A49G,0.116
21,A39C U53A,0.549
22,A39G A61C,0.139
23,A39G A61G,0.123
